Stoichiometry N data for two substances are collected here from PMC12802151.

Experiment [1] has as its target J paramyxovirus receptor-binding protein, β-propeller head domain with extended C-terminus (JPV-RBPβ+) (J paramyxovirus (JPV)). Briefly: crystal structure; JPV-RBPβ+ at 3.5 mg/mL, sitting-drop vapor diffusion at room temperature, 0.1 M tris/bicine pH 8.5, 0.2 M ammonium sulfate, Morpheus precipitant mix 4; 2.2 Å; a dimer in the asymmetric unit.
Experiment [2] deals with Beilong paramyxovirus (HMC isolate) receptor-binding protein, β-propeller head domain with C-terminal extension (BeiV(HMC)-RBPβ+) (Beilong paramyxovirus (BeiV), isolate from human mesangial cells (HMC)). Briefly: crystal structure; BeiV(HMC)-RBPβ+ at 3.2 mg/mL, sitting-drop vapor diffusion at room temperature, 0.2 M potassium thiocyanate, 0.1 M sodium cacodylate pH 6.5, 8% poly-γ-glutamic acid polymer; 3.5 Å; a dimer in the asymmetric unit.

The stoichiometry N is a count of units in the complex or per binding partner. In experiment [1], “J paramyxovirus receptor-binding protein, β-propeller head domain with extended C-terminus (JPV-RBPβ+) (domain or fragment)” showed a stoichiometry N of 2.

“Beilong paramyxovirus (HMC isolate) receptor-binding protein, β-propeller head domain with C-terminal extension (BeiV(HMC)-RBPβ+) (domain or fragment)” registered a stoichiometry N in experiment [2] of 2.
